Test system: MS2 coat protein
Experiment: apparent KD of MS2 coat protein; designed switch direction (-1 OFF switch, 1 ON switch): -1; higher = weaker reporter binding
Outline: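 Each step of the titration lasted 0.8–1.5 h at the lowest concentration and 10–20 min at the highest. The protein, SNAP-549-labelled MS2 coat protein, went from 0.7 or 1.5 nM doubling to 3 µM over RNA switches transcribed on Illumina chips by stalled E. coli RNA polymerase. Normalised cluster fluorescence was curve-fitted, and the per-design median over clusters is given as apparent KD.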

[1] = input ligand: microRNA oligo, concentration not stated
[2] = Eterna round: R95, input ligand: FMN 200 uM
[3] = Eterna round: R95, input ligand: microRNA oligo, concentration not stated
[4] = Eterna round: R95, input ligand: none

Sequence | apparent KD of MS2 coat protein (input ligand: FMN 200 uM) [nM] | apparent KD of MS2 coat protein (input ligand: none) [nM] | apparent KD of MS2 coat protein [3] [nM] | also measured
GCACGGAGUGUAGGAUAUCUGUGCGAUUAGCUCAGAGAAGGACACAUGAGGAUCACCCAUGUGUAACUCAACAUUAAUCCGUGC [Eli exng1 - 074] (Eterna round: R96, puzzle: Exclusion NG 1) | 9.63 | 10.6 |  | apparent KD of MS2 coat protein [1]: 7.59 nM
CACACGUAAGGAUAUACAACGGAAACGGGCGCGCGGGCCUCACAUGAGGAUCACCCAUGUAGAAGGUGCACGGG [Eternabot (Original) Solution 18] (Eterna round: R97, puzzle: Exclusion 2) | 41.7 | 50.3 |  | 
GUAGAGUGAGGAUAUACGAGAUCGAAAGAUCGGCGAUCCAUACAUGAGGAUCACCCAUGUAGAAGGCACUCUAC [Eli x2 4.002] (Eterna round: R97, puzzle: Exclusion 2) | 521 | 26.3 |  | 
AAAAGUCUUUAGGAUAUGUGCGAUUAAUAUCGUGCAGAAGGAAGGACAUGAGGAUCACCCAUGUUGAAGACAAC [Omei Ex6 A19] (Eterna round: R97, puzzle: Exclusion 6) | 51.1 | 22.1 |  | 
AUUACUAACACGAAAGUGUUAGUACAAUAAGCUUGUGAAACAUGAGGAUCACCCAUGUCCUCAUAAGCUCGUCUUAA [salish99_TOv2_r3_010] (puzzle: Sensor v3, turn-off variant 2) |  |  | 217 | apparent KD of MS2 coat protein [2]: 14 nM; apparent KD of MS2 coat protein [4]: 11.9 nM
CUUAGACAUGAGGAUCACCCAUGUGAGGAUAUGAAAUUAAUUAAGUAUGAAGUAUGAAUCAGAAGGCACAUAUG [Mat - Mod of Hyphema D34] (puzzle: Exclusion 1) |  |  | 92.1 | apparent KD of MS2 coat protein [2]: 61.7 nM; apparent KD of MS2 coat protein [4]: 81.6 nM
AAUAACAGAGGAUAUACUGUUUUAUGUGUUUGUUGUUUUAAACAUGAGGAUCACCCAUGUAGAAGGCUGAAUAA [JMF 19] (puzzle: Exclusion 2) |  |  | 18.4 | 
GGUUUGCGGCAGGAUAUCCAUCCGCGGUAUGGUGGAGAAGGGCUGACAUGAGGAUCACCCAUGUGCGUCCUAGG [salish99_ex6_r4_018] (Eterna round: R97, puzzle: Exclusion 6) | 24.6 | 18.8 |  | 
GAUAGACAUGAGGAUCACCCAUGUGAGGAUAUGCGUACGUUGUCCGUAGGCGACGUGCGCAGAAGGCGCGAGGU [Mat - Mod of JL D93] (puzzle: Exclusion 1) |  |  | 42.5 | 
UUUUAGGAAGGAUAUACAUUUUUUUUAUUAUCCUCAUUAUUACAUGAGGAUCACCCAUGUAGAAGGUCCAUUUU [My Design] (puzzle: Exclusion 2) |  |  | 175 | 
GAGUGCUGAGGAUAUACAUGAGGAUCACCCAUGUGCUUCAGCUAGGAGACUAGCAUUGGUAGAAGGUAGUACUC [Mod of lroppy 4 - Jieux - Exclusion 3] (Eterna round: R97, puzzle: Exclusion 3) | 19.9 | 13.2 |  | 
UUAAUGUGAGGAUAUCAGGUGUGCUAGCGUACUGGUACAUCUGAGAAGGCACAUGAGGAUCACCCAUGUUCCAG [JL-ex4-3.29 Brourd mod] (puzzle: Exclusion 4) |  |  | 30.5 | 
CCCUCACAUGAGGAUCACCCAUGUCAGGAUAUUCGACGGUAAAUUGGCCGUCUUAAAGGAAGAAGGGACGUAAC [Lesoorxe] (puzzle: Exclusion 1) |  |  | 13 | 
UAAAGUAUAUAGGAUAUCUAGCUGGUAACAGCUAGAGAAGGAUGUACAUGAGGAUCACCCAUGUAAAUCGUGAA [Ex6/13-A2] (Eterna round: R97, puzzle: Exclusion 6) | 20.5 | 16.9 |  | 
GGAAAACAUGAGGAUCACCCAUGUAAGGAUAUGCAAAAGGAUAUAGAAGGAAAAAAAAGCAGAAGGUACAAAGG [salish99-ex1_r3_094] (puzzle: Exclusion 1) |  |  | 36.3 | apparent KD of MS2 coat protein [2]: 132 nM; apparent KD of MS2 coat protein [4]: 32.8 nM
CACCGUUACAGAGGAUAUCUUACAUGAGGAUCACCCAUGUAAUAAAUGAGAAUUUCGGAUGUAUGAGAGAAGGCUGGAAUCGGC [Ostricism 38 - Jieux - Exclusion NG 2] (Eterna round: R96, puzzle: Exclusion NG 2) |  |  |  | apparent KD of MS2 coat protein [1]: 16.3 nM
AUAUAGUCAGGAUAUCGAAGUGUGUGUUGGUUUGUAAUUUACGAGAAGGGACAUGAGGAUCACCCAUGUAGGAA [JR_Exclusion4)Sub002] (Eterna round: R96, puzzle: Exclusion 4) | 49.3 | 44.1 |  | apparent KD of MS2 coat protein [1]: 33.8 nM
ACAUGAGGAUCACCCAUGUCAGGCUGGUCCGCUCCGGCUGUUGAGGAUAUAGCACGGUGUCCGCGCUAGAAGGUGAGGGCCGGC [Aenatbe mod 31] (Eterna round: R96, puzzle: Exclusion NG 3) | 24.8 | 26.4 |  | apparent KD of MS2 coat protein [1]: 15.7 nM
AUUUUGUGAGGAUAUUAGUUUUAUAAUUUUAUUAGUUUAGCUGAGAAGGCACAUGAGGAUCACCCAUGUAAAUC [JR_Ex4_Sub045] (Eterna round: R97, puzzle: Exclusion 4) | 42.5 | 22.9 |  | 
AAGAAAGAGUUAGGAUAUACAUGAGGAUCACCCAUGUGGUGGUAAAUCCGCUGGGUCGGUUCGAUGUAGAAGGAACAACCGCCG [Inisinlaon] (Eterna round: R96, puzzle: Exclusion NG 2) | 281 | 68.3 |  | apparent KD of MS2 coat protein [1]: 18.7 nM
CCCUCAAGCGAGGAUAUAAAUGCGCAUUCGCGGUUAGAAGGCGCUACAUGAGGAUCACCCAUGUAAUUGUAUGG [jl-ex6-4.53 ViennaUCT mod] (Eterna round: R97, puzzle: Exclusion 6) | 98.4 | 73.4 |  | 
GUAAAACAUGAGGAUCACCCAUGUCAGGAUAUACGAUUCCACCCUAACUGCGUGGAACGUAGAAGGGACAUAGG [Exclusion 1 (MOD6.1 Esqu)] (Eterna round: R97, puzzle: Exclusion 1) | 57.9 | 221 |  | 
UGAUCUUGGGUCAGGAUAUGCUGGUAUUUUUGCCAGCAGAAGGGACAUGAGGAUCACCCAUGUUCUUGGUUUUU [Magic-14] (puzzle: Brourd's mod of Exclusion 4) |  |  | 10.4 | 
GCUGGUCGAGGAUAUACAUUCGUGCUUCGGCACGUAAGGUCACAUGAGGAUCACCCAUGUAGAAGGCGACCAGC [E2/7-A1] (Eterna round: R97, puzzle: Exclusion 2) | 258 | 42.2 |  | 
UAGAGACAUGAGGAUCACCCAUGUCAGGAUAUCUGCUUAGACAGGUUCACGGUCUAGUAGAGAAGGGACUGGAG [Eternabot (L2) Solution 42] (Eterna round: R97, puzzle: Exclusion 1) | 121 | 87.4 |  | 
GAACAAGCGUGAGGCUCGUCUUAAAGAGCCUCAUGAAAAACAUGAGGAUCACCCAUGUAAAAUGAUCGAAAGAUCAA [Mat - Sensor v2 - var 2 - Mod - D131] (Eterna round: R96, puzzle: Sensor v2, turn-off variant 2) | 14.9 | 16.9 |  | apparent KD of MS2 coat protein [1]: 12.7 nM
AAGGAUAGAGGAUAUACAUAGAUACAGAUUCAUGUAGAAUUACAUGAGGAUCACCCAUGUAGAAGGCUAUCCUA [Fiskers Ex 2 - 1] (puzzle: Exclusion 2) |  |  | 285 | 

— the supplement of paper PMC9170038
